Measured values from PMC5376753.

Target: activin type II B receptor (ActRIIB) (human (endogenous in HEK293T)) (UniProt Q13705)
UniProt Q13705, sequence (Q13705 19-512): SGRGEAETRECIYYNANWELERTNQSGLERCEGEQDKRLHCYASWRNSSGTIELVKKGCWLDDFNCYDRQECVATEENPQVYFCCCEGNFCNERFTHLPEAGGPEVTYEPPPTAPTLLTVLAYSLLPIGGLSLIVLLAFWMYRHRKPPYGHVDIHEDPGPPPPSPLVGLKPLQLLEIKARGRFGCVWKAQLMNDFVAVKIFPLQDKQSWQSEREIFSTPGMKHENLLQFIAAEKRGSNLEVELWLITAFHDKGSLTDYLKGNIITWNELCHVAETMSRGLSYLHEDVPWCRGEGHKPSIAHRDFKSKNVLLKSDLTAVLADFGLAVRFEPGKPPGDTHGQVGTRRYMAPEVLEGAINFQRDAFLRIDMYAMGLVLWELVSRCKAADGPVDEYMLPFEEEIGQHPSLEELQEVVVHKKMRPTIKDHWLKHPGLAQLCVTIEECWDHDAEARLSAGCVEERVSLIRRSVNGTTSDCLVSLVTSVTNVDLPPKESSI

p-SMAD2/3 AlphaLISA response of HEK293T cells after 1 h of ligand; potency of the ligand with 100 nM anti-ActRIIB (murinized BYM338) applied overnight against 0 nM antibody [fold] | Molecule
> 100 | recombinant myostatin (Mstn) (from UniProt O14793 267-375) (ligand)
100 | recombinant growth and differentiation factor 11 (GDF11) (ligand) NLGLDCDEHSSESRCCRYPLTVDFEAFGWDWIIAPKRYKANYCSGQCEYMFMQKYPHTHLVQQANPRGSAGPCCTPTKMSPINMLYFNDKQQIIYGKIPGMVVDRCGCS
> 100 | recombinant activin A (ligand) GLECDGKVNICCKKQFFVSFKDIGWNDWIIAPSGYHANYCEGECPSHIAGTSGSSLSFHSTVINHYRMRGHSPFANLKSCCVPTKLRPMSMLYYDDGQNIIKKDIQNMIVEECGCS
